Our source for the EC50 values is patent US20250277023A1 (published 2025).

Test [1] concerns the target T1, PD-L1 (on CHO-PD-L1 cells) (UniProt Q9NZQ7 19-290). Briefly: FACS binding; Fig. 22. Background: Flow cytometry measures light scatter and fluorescence of single cells or particles in a stream.
Test [2] addresses T1, PD-L1 (on CHO-PD-L1 cells). Kind of test: FACS binding; Fig. 24.

T1 sequence (Q9NZQ7 19-290): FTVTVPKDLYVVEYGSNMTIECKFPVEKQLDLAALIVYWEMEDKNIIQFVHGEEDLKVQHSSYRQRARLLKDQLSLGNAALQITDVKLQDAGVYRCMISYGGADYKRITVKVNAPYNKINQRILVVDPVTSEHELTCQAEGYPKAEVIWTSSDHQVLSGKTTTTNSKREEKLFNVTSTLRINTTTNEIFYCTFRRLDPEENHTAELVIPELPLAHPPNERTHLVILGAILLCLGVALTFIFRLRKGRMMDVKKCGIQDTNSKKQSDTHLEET

B1: R0919 (PD-L1 monoclonal antibody) (antibody, V domains shown)
VH: EVQLQESGPGLVKPSETLSLTCAVYGDSITSGYWNWIRKPPGKGLEYMGYISYTGSTYQNPSLKSRITFSRDTSKNQYYLKLSSVTAADTATYYCARSRAWIRTYFDYWGQGTLVTVSS
VL: EIVLTQSPDFQSVTPKEKVTITCSVSSSISSSNLHWYQQKPDQSPKLLIYGTSNLASGVPSRFSGSGSGTDFTLTINSLEAEDAATYYCQQWSSYPLTFGQGTKLEIK
B1: the EC50 (commonly the concentration at which the effect is half-maximal) in test [1] was determined as 3.38 nM.

B2: R1082: TIGIT_VH (W108C)_IL15RA/TIGIT_VL(S43C)_IL15/PD-L1-Fab (bispecific antibody)
chain 1: QVQLVQSGAEVKKPGSSVKVSCKASGYSFTSYWMNWVRQAPGQGLEWIGMIRPSDSETRLNQMFKDRVTITVDKSTSTAYMELSSLRSEDTAVYYCAGIHDYGHGAYCGQGTLVTVSSGGGGSGGGGSGGGGSGGGGSGITCPPPMSVEHADIWVKSYSLYSRERYICNSGFKRKAGTSSLTECVLNKATNVAHWTTPSLKCIRDPALVHQRPAPPSTVTTAGVTPQPESLSPSGKEPAASSPSSNNTAATTAAIVPGSQLMPSKSPSTGTTEISSHESSHGTPSQTTAKNWELTASASHQPPGVYPQGHSDTTEPKSSDKTHTCPPCPAPELLGGPSVFLFPPKPKDTLMISRTPEVTCVVVDVSHEDPEVKFNWYVDGVEVHNAKTKPREEQYNSTYRVVSVLTVLHQDWLNGKEYKCKVSNKALPAPIEKTISKAKGQPREPQVYTLPPSREEMTKNQVSLTCRVKGFYPSDIAVEWESNGQPENNYKTTPPVLKSDGSFFLASKLTVDKSRWQQGNVFSCSVMHEALHNHYTQKSLSLSPGK
chain 2: DIQMTQSPSSLSASVGDRVTITCRASENIYSNLAWYQQKPGKCPKLLVYAASHLPDGVPSRFSGSGSGTDYSLTISSLQPEDFATYYCQHFWGTPRTFGQGTKLEIKGGGGSGGGGSGGGGSGGGGSGNWVNVISDLKKIEDLIQSMHIDATLYTESDVHPSCKVTAMKCFLLELQVISLESGDASIHNTVQDLIILANNSLSSNGNVTESGCKECEELEEKNIKEFLQSFVHIVQMFINTS
heavy: QVQLQESGPGLVKPSETLSLTCAVYGDSITSGYWNWIRKPPGKGLEYIGYISYTGSTYQNPSLKSRITMSRDTSKNQYYLKLSSVTAADTAVYYCARSRAWIRTYFDYWGQGTLVTVSSASTKGPSVFPLAPSSKSTSGGTAALGCLVKDYFPEPVTVSWNSGALTSGVHTFPAVLQSSGLYSLSSVVTVPSSSLGTQTYICNVNHKPSNTKVDKRVEPKSCDKTHTCPPCPAPELLGGPSVFLFPPKPKDTLMISRTPEVTCVVVDVSHEDPEVKFNWYVDGVEVHNAKTKPREEQYNSTYRVVSVLTVLHQDWLNGKEYKCKVSNKALPAPIEKTISKAKGQPREPQVYTLPPSREEMTKNQVSLWCLVKGFYPSDIAVEWESNGQPENNYDTTPPVLDSDGSFFLYSDLTVDKSRWQQGNVFSCSVMHEALHNHYTQKSLSLSPGK
light: DIQMTQSPSSLSASVGDRVTITCSVSSSISSSNLHWYQQKPGKAPKPWIYGTSNLASGVPSRFSGSGSGTDYTLTISSLQPEDFATYYCQQWSSYPLTFGQGTKLEIKRTVAAPSVFIFPPSDEQLKSGTASVVCLLNNFYPREAKVQWKVDNALQSGNSQESVTEQDSKDSTYSLSSTLTLSKADYEKHKVYACEVTHQGLSSPVTKSFNRGEC
B2 registered an EC50 in test [2] of 2.78 nM.

B3: R1083: TIGIT_VH (L45C)_IL15RA/TIGIT_VL(F98C)_IL15/PD-L1-Fab (bispecific antibody)
chain 1: QVQLVQSGAEVKKPGSSVKVSCKASGYSFTSYWMNWVRQAPGQGCEWIGMIRPSDSETRLNQMFKDRVTITVDKSTSTAYMELSSLRSEDTAVYYCAGIHDYGHGAYWGQGTLVTVSSGGGGSGGGGSGGGGSGGGGSGITCPPPMSVEHADIWVKSYSLYSRERYICNSGFKRKAGTSSLTECVLNKATNVAHWTTPSLKCIRDPALVHQRPAPPSTVTTAGVTPQPESLSPSGKEPAASSPSSNNTAATTAAIVPGSQLMPSKSPSTGTTEISSHESSHGTPSQTTAKNWELTASASHQPPGVYPQGHSDTTEPKSSDKTHTCPPCPAPELLGGPSVFLFPPKPKDTLMISRTPEVTCVVVDVSHEDPEVKFNWYVDGVEVHNAKTKPREEQYNSTYRVVSVLTVLHQDWLNGKEYKCKVSNKALPAPIEKTISKAKGQPREPQVYTLPPSREEMTKNQVSLTCRVKGFYPSDIAVEWESNGQPENNYKTTPPVLKSDGSFFLASKLTVDKSRWQQGNVFSCSVMHEALHNHYTQKSLSLSPGK
chain 2: DIQMTQSPSSLSASVGDRVTITCRASENIYSNLAWYQQKPGKSPKLLVYAASHLPDGVPSRFSGSGSGTDYSLTISSLQPEDFATYYCQHFWGTPRTCGQGTKLEIKGGGGSGGGGSGGGGSGGGGSGNWVNVISDLKKIEDLIQSMHIDATLYTESDVHPSCKVTAMKCFLLELQVISLESGDASIHNTVQDLIILANNSLSSNGNVTESGCKECEELEEKNIKEFLQSFVHIVQMFINTS
heavy: QVQLQESGPGLVKPSETLSLTCAVYGDSITSGYWNWIRKPPGKGLEYIGYISYTGSTYQNPSLKSRITMSRDTSKNQYYLKLSSVTAADTAVYYCARSRAWIRTYFDYWGQGTLVTVSSASTKGPSVFPLAPSSKSTSGGTAALGCLVKDYFPEPVTVSWNSGALTSGVHTFPAVLQSSGLYSLSSVVTVPSSSLGTQTYICNVNHKPSNTKVDKRVEPKSCDKTHTCPPCPAPELLGGPSVFLFPPKPKDTLMISRTPEVTCVVVDVSHEDPEVKFNWYVDGVEVHNAKTKPREEQYNSTYRVVSVLTVLHQDWLNGKEYKCKVSNKALPAPIEKTISKAKGQPREPQVYTLPPSREEMTKNQVSLWCLVKGFYPSDIAVEWESNGQPENNYDTTPPVLDSDGSFFLYSDLTVDKSRWQQGNVFSCSVMHEALHNHYTQKSLSLSPGK
light: DIQMTQSPSSLSASVGDRVTITCSVSSSISSSNLHWYQQKPGKAPKPWIYGTSNLASGVPSRFSGSGSGTDYTLTISSLQPEDFATYYCQQWSSYPLTFGQGTKLEIKRTVAAPSVFIFPPSDEQLKSGTASVVCLLNNFYPREAKVQWKVDNALQSGNSQESVTEQDSKDSTYSLSSTLTLSKADYEKHKVYACEVTHQGLSSPVTKSFNRGEC
The molecule B3 yielded an EC50 in test [2] of 2.29 nM.

B4: R1124: PD-L1_VH_IL21R/TIGIT_VL_IL21/TIGIT_VH/PD-L1-VL (bispecific antibody)
chain 1: not shown
chain 2: not shown
heavy: QVQLVQSGAEVKKPGSSVKVSCKASGYSFTSYWMNWVRQAPGQGLEWIGMIRPSDSETRLNQMFKDRVTITVDKSTSTAYMELSSLRSEDTAVYYCAGIHDYGHGAYWGQGTLVTVSSASTKGPSVFPLAPSSKSTSGGTAALGCLVKDYFPEPVTVSWNSGALTSGVHTFPAVLQSSGLYSLSSVVTVPSSSLGTQTYICNVNHKPSNTKVDKRVEPKSCDKTHTCPPCPAPELLGGPSVFLFPPKPKDTLMISRTPEVTCVVVDVSHEDPEVKFNWYVDGVEVHNAKTKPREEQYNSTYRVVSVLTVLHQDWLNGKEYKCKVSNKALPAPIEKTISKAKGQPREPQVYTLPPSREEMTKNQVSLWCLVKGFYPSDIAVEWESNGQPENNYDTTPPVLDSDGSFFLYSDLTVDKSRWQQGNVFSCSVMHEALHNHYTQKSLSLSPGK
light: EIVLTQSPDFQSVTPKEKVTITCSVSSSISSSNLHWYQQKPDQSPKLLIYGTSNLASGVPSRFSGSGSGTDFTLTINSLEAEDAATYYCQQWSSYPLTFGQGTKLEIKRTVAAPSVFIFPPSDEQLKSGTASVVCLLNNFYPREAKVQWKVDNALQSGNSQESVTEQDSKDSTYSLSSTLTLSKADYEKHKVYACEVTHQGLSSPVTKSFNRGEC
In test [1], B4 came in with a half-maximal effective concentration (EC50) of 13.7 nM.

B5: R1119: TIGIT_VH_IL18R1_D1D2/TIGIT_VL_IL18/PD-L1-Fab (bispecific antibody)
chain 1: QVQLVQSGAEVKKPGSSVKVSCKASGYSFTSYWMNWVRQAPGQGLEWIGMIRPSDSETRLNQMFKDRVTITVDKSTSTAYMELSSLRSEDTAVYYCAGIHDYGHGAYWGQGTLVTVSSGGGGSGGGGSGGGGSGGGGSGCTSRPHITVVEGEPFYLKHCSCSLAHEIETTTKSWYKSSGSQEHVELNPRSSSRIALHDCVLEFWPVELNDTGSYFFQMKNYTQKWKLNVIRRNKHSCFTERQVTSKIVEVKKFFQITCENSYYQTLVNSTSLYKNCKKLLLENNKNPTIKKNAEFEDQGYYSCVHFLHHNGKLFNITKTFNITIVEDRSNIVEPKSSDKTHTCPPCPAPELLGGPSVFLFPPKPKDTLMISRTPEVTCVVVDVSHEDPEVKFNWYVDGVEVHNAKTKPREEQYNSTYRVVSVLTVLHQDWLNGKEYKCKVSNKALPAPIEKTISKAKGQPREPQVYTLPPSREEMTKNQVSLTCRVKGFYPSDIAVEWESNGQPENNYKTTPPVLKSDGSFFLASKLTVDKSRWQQGNVFSCSVMHEALHNHYTQKSLSLSPGK
chain 2: not shown
heavy: EVQLQESGPGLVKPSETLSLTCAVYGDSITSGYWNWIRKPPGKGLEYMGYISYTGSTYQNPSLKSRITFSRDTSKNQYYLKLSSVTAADTATYYCARSRAWIRTYFDYWGQGTLVTVSSASTKGPSVFPLAPSSKSTSGGTAALGCLVKDYFPEPVTVSWNSGALTSGVHTFPAVLQSSGLYSLSSVVTVPSSSLGTQTYICNVNHKPSNTKVDKRVEPKSCDKTHTCPPCPAPELLGGPSVFLFPPKPKDTLMISRTPEVTCVVVDVSHEDPEVKFNWYVDGVEVHNAKTKPREEQYNSTYRVVSVLTVLHQDWLNGKEYKCKVSNKALPAPIEKTISKAKGQPREPQVYTLPPSREEMTKNQVSLWCLVKGFYPSDIAVEWESNGQPENNYDTTPPVLDSDGSFFLYSDLTVDKSRWQQGNVFSCSVMHEALHNHYTQKSLSLSPGK
light: EIVLTQSPDFQSVTPKEKVTITCSVSSSISSSNLHWYQQKPDQSPKLLIYGTSNLASGVPSRFSGSGSGTDFTLTINSLEAEDAATYYCQQWSSYPLTFGQGTKLEIKRTVAAPSVFIFPPSDEQLKSGTASVVCLLNNFYPREAKVQWKVDNALQSGNSQESVTEQDSKDSTYSLSSTLTLSKADYEKHKVYACEVTHQGLSSPVTKSFNRGEC
B5: the midpoint of the response in test [1], the EC50, lay at 2.95 nM.
